# Measured values from patent US20100196361A1, “Method of inhibition of vascular development using an antibody” (DYAX CORP., priority 2003, published 2010).
# Positions count from the first letter of the chain named.
# B1: M0058F03: Tie1-binding antibody; LC SEQ ID NO:604, HC SEQ ID NO:606 (antibody, V domains shown)
# VH: EVQLLESGGGLVQPGGSLRLSCAASGFTFSDYGMAWVRQAPGKGLEWVSVISPSGGQTAYADSVKGRFTISRDNSKNTLYLQMNSLRAEDTAVYYCATVRWFGAFDYWGQGTLVTVSS
# VL: QDIQMTQSPSTLSASVGDRVTITCRASQGISNYLAWYQQKPGKVPKLLIYGASNLQSGVSSRFSGSGSATDFTLTISSLQPEDFATYYCQQFNSYPLTFGGGTKVEIK
# modifications: Antibody
# B2: E3b Fab: Fab with germlined HC and germlined LC sequence of E3 (antibody, V domains shown)
# VH: EVQLLESGGGLVQPGGSLRLSCAASGFTFSMYGMVWVRQAPGKGLEWVSVISPSGGNTGYADSVKGRFTISRDNSKNTLYLQMNSLRAEDTAVYYCARAPRGYSYGYYYWGQGTLVTVSS
# VL: DIQMTQSPSSLSASVGDRVTITCRASQGIGHYLAWYQQKPGKVPKLLIYTASTLQSGVPSRFSGSGSGTDFTLTISSLQPEDVATYYCQQFNSYPHTFGQGTRLEIK
# B3: M0055E10: Tie1-binding antibody; LC SEQ ID NO:492, HC SEQ ID NO:494 (antibody, V domains shown)
# VH: EVQLLESGGGLVQPGGSLRLSCAASGFTFSAYPMFWVRQAPGKGLEWVSVISPSGGQTSYADSVKGRFTISRDNSKNTLYLQMNSLRAEDTAVYYCAKSFSGLAALDFWGQGTLVTVSS
# VL: QDIQMTQSPATLSLSPGERATLSCRASQSVRTYLGWYQQKHGQAPRLLIYDASNRATGIPARFSGSGSGTDFTLTISSLEPEDFAVYYCQQRSNWPLTFGGGTKVEIK
# modifications: Antibody
# B4: M0060H01: Tie1-binding antibody; LC SEQ ID NO:628, HC SEQ ID NO:630 (antibody, V domains shown)
# VH: EVQLLESGGGLVQPGGSLRLSCAASGFTFSYYPMVWVRQAPGKGLEWVSVIVPSGGFTAYADSVKGRFTISRDNSKNTLYLQMNSLRAEDTAMYYCARKRPGNAFDIWGQGTMVTVSS
# VL: B3 VL with R31S, T32S, G35A, H41P, L97V, G101Q, K104R, V105L
# modifications: Antibody
# B5: M0054H10: Tie1-binding antibody; LC SEQ ID NO:448, HC SEQ ID NO:450 (antibody, V domains shown)
# VH: EVQLLESGGGLVQPGGSLRLSCAASGFTFSQYPMIWVRQAPGKGLEWVSVISPSGGHTSYADSVKGRFTISRDNSKNTLYLQMNSLRAEDTAVYYCARIQYYGGAFDIWGQGKMVTVSS
# VL: B3 VL with R31S, T32I, G35A, H41P, G58D, N94S, L97I, G101L, K104R, V105L
# modifications: Antibody
# Tests used:
# Tie1 = Tie1 (Homo sapiens, UniProt P35590); experiment: Competition with E3 for binding to Tie1
# human Tie1 Fc = biological target: T1, human Tie1 Fc (Homo sapiens, UniProt P35590); experiment: BIAcore, Fab over Tie1/Fc coated on CM5 chip; type: binding; details: Fab analyte
# T1 construct: selected against the Tie1 extracellular domain fused to human Fc or to a histidine purification tag
# T1 sequence (P35590 22-759 limits assumed): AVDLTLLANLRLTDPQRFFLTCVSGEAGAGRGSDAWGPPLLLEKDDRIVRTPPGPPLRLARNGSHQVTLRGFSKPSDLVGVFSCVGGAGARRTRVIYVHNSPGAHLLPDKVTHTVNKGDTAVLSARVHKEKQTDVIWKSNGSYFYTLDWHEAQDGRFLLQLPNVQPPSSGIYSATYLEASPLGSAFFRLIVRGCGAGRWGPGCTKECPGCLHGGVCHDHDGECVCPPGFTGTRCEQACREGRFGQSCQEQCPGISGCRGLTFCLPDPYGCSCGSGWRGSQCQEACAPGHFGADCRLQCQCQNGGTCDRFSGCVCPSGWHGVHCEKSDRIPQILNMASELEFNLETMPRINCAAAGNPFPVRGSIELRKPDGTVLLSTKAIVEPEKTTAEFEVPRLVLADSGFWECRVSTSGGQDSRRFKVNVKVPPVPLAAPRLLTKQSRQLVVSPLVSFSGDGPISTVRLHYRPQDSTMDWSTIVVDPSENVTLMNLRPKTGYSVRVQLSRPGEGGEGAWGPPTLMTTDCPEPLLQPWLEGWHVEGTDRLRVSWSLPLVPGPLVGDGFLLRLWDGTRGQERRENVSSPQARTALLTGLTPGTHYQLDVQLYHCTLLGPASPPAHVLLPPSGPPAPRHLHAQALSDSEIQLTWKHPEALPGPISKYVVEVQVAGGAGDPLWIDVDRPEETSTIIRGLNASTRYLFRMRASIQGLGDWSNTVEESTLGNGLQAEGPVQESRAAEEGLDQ
# Excerpt: To evaluate if the binding behaviour had been affected in any way by the conversion of the somatic mutations back to germline residues, the parental and the germlined E3b antibodies were produced and tested in Biacore as Fab fragments. Here, by contrast to what was done for the IgGs (see Example 28), and in order to measure a monovalent interaction, the Fabs were run over the antigen directly coated onto the surface.
# Recombinant human Tie1/Fc was coated on a CM5 chip. The surface of the chip was first activated with a 7-minute pulse of 0.05 M NHS/0.2 M EDC, then Tie1/Fc (2 μg/ml in 10 mM sodium acetate, pH 4.0) was run over the chip surface until 750 RUs were coated on the surface. All flow cells were subsequently deactivated with a 7-minute pulse of 1 M ethanolamine hydrochloride, pH 8.5. All further experiments were performed in HBS buffer.
# The parental and the germlined E3b Fabs were prepared. A series of dilution (50, 25, 12.5, 6.25 and 3.125 nM) was prepared in HBS buffer. Samples were injected at 30 μl/min for 5.3 minutes using the KINJECT™ program. This was followed by a 10-minute dissociation phase, and the remaining Fab was stripped from the surface with a single 18-sec injection of 50 mM NaOH/1 M NaCl.
# Sensorgrams were analyzed using the simultaneous ka/kd fitting program from the BIAEVALUATION™ software 3.1 assuming a 1:1 model.
# [1] = biological target: T2, human Tie1-Fc fusion protein (Homo sapiens, UniProt P35590); experiment: BIAcore 3000 affinity analysis of Fab and IgG; type: binding
# T2 construct: selected against the Tie1 extracellular domain fused to human Fc or to a histidine purification tag
# T2 sequence (P35590 22-759 limits assumed): T1 sequence (P35590 22-759 limits assumed)
# Description: Affinity analysis of the Fab and IgGs was performed using surface plasmon resonance using a BIAcore 3000 instrument. For this analysis both dimeric (Tie1-Fc fusion protein) and monomeric (Tie1-HIS) versions of the extracellular domain of the Tie1 were used. The sensor chips used in these experiments were CM5 (dextran-coated) which allow immobilization of proteins to the chip via standard amine coupling chemistries. The concentration of flowed antibody was determined using a surface plasmon resonance based method. Using a high-density protein A sensor chip, under mass transport limited conditions, the response signal is dependent only on the concentration of the antibody in the sample under test. This approach allows a precise determination of the antibody concentration, a parameter important for accurate determination of the KD.
# 470 RUs of Tie1 HIS protein were coated on a CM5 sensor chip and 5, 20, 100, and 500 nM of the Fab flowed over the chip at four different flow rates ([…]), rates in which the system is not mass transport limited. Kinetic data was typically determined using a range of analyte concentrations and three different chip coating densities. The data from the lowest coating density that gave a good signal was typically chosen, this was often in a range from 50-100 RUs. Using such low coating densities allowed the sensor curves to be fit using BIAEVALUATION™ 3.0 software to a 1:1 model, often even when using a bivalent analyte (IgG or Tie1-Fc fusion protein). For bivalent analytes, when fit to a 1:1 model was not possible, the curves were fit using a 2:1 model.
# The anti-Tie1 antibodies described here bind to both human and mouse Tie1 molecules. The binding of the anti-Tie1 Fab to mouse Tie1-Fc fusion protein was compared with the binding of the anti-Tie1 Fab to human Tie1-Fc fusion protein. In both of these experiments the Tie1-Fc fusion protein was immobilized on the sensor chip and the anti Tie-1 Fab served as the analyte. Under these experimental conditions the anti-Tie1 Fab has very similar KD (˜3 nM) values for both the human and mouse Tie1-Fc fusion proteins (Table 9). Under conditions that are likely to mimic those used in the animal efficacy experiments, i.e. Tie1-Fc immobilized to the CM5 sensor chip and anti-Tie1 used as the analyte, the measured KD was 0.2 nM.
# Tie1, sequence (P35590 22-1138): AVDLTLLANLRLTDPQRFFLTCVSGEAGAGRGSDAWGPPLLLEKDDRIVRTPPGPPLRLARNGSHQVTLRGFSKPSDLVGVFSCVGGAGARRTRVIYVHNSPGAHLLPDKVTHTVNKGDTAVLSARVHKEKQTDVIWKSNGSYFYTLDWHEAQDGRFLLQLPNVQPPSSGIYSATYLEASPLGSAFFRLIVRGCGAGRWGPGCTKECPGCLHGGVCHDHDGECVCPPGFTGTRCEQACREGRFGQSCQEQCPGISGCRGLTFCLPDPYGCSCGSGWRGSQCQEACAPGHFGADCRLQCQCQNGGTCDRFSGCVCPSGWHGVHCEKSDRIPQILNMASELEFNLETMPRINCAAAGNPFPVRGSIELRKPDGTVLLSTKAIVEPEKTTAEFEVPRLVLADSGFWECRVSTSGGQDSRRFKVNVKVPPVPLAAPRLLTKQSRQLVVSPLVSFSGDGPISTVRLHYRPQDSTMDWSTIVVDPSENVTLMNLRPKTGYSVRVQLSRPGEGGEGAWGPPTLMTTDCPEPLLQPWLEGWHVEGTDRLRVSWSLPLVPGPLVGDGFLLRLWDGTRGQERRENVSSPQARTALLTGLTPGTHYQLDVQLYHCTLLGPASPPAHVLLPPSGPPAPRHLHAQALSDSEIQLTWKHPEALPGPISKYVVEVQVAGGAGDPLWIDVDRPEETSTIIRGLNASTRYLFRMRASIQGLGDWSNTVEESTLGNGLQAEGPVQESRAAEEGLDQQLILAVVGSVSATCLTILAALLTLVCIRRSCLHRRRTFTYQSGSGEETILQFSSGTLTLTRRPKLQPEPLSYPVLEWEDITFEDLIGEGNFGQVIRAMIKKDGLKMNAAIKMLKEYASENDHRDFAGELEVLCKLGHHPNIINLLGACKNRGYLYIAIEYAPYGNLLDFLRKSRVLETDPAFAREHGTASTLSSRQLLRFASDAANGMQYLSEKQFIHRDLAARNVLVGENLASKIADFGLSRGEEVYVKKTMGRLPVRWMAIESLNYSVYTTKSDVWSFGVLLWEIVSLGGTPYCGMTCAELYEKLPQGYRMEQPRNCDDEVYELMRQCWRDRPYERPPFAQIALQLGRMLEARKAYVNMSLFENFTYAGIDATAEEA
Molecule,competition with E3 for binding to Tie1 (Tie1),also measured
B1,competes with E3 for binding to Tie1,
B2,,"koff (human Tie1 Fc; Human Tie1 Fc coated on CM5): 0.00101 s⁻¹; kon (human Tie1 Fc; Human Tie1 Fc coated on CM5, 750 RU): 136000 M⁻¹ s⁻¹; Kon [1]: 9300 M⁻¹ s⁻¹; koff [1]: 4.41e-05 s⁻¹"
B3,competes with E3 for binding to Tie1,
B4,competes with E3 for binding to Tie1,
B5,competes with E3 for binding to Tie1,
